Laboratory results as given in article PMC4182028.
Blank lines part the entries; values can stand above or below the substance they belong to.

Key:
[1] = biological target: Chaetomium thermophilum p44 (residues 1-285) (Chaetomium thermophilum)
[2] = system: ctXPD R195A (Chaetomium thermophilum); assay: BLI; details: 3'-biotin; BLI (Octet RED): 20 mM Tris-HCl pH 8.0, 150 mM NaCl, 10 mM MgCl2, 1 mM DTT, 1 mg/ml BSA; 0.5-5 uM ctXPD; temperature not stated
[3] = system: ctXPD K719W (Chaetomium thermophilum); assay: BLI; details: 3'-biotin; BLI (Octet RED): 20 mM Tris-HCl pH 8.0, 150 mM NaCl, 10 mM MgCl2, 1 mM DTT, 1 mg/ml BSA; 0.5-5 uM ctXPD; temperature not stated
[4] = system: ctXPD R195E (Chaetomium thermophilum); assay: BLI; details: 3'-biotin; BLI (Octet RED): 20 mM Tris-HCl pH 8.0, 150 mM NaCl, 10 mM MgCl2, 1 mM DTT, 1 mg/ml BSA; 0.5-5 uM ctXPD; temperature not stated
[5] = system: ctXPD wild type;ctp44 (1-285) (Chaetomium thermophilum;Chaetomium thermophilum); assay: BLI; details: 3'-biotin; BLI (Octet RED): 20 mM Tris-HCl pH 8.0, 150 mM NaCl, 10 mM MgCl2, 1 mM DTT, 1 mg/ml BSA; 0.5-5 uM ctXPD; temperature not stated
[6] = system: ctXPD wild type (Chaetomium thermophilum); assay: BLI; details: 3'-biotin; BLI (Octet RED): 20 mM Tris-HCl pH 8.0, 150 mM NaCl, 10 mM MgCl2, 1 mM DTT, 1 mg/ml BSA; 0.5-5 uM ctXPD; temperature not stated
[7] = system: ctXPD F192A (Chaetomium thermophilum); assay: BLI; details: 3'-biotin; BLI (Octet RED): 20 mM Tris-HCl pH 8.0, 150 mM NaCl, 10 mM MgCl2, 1 mM DTT, 1 mg/ml BSA; 0.5-5 uM ctXPD; temperature not stated
[8] = system: ctXPD K48R (Chaetomium thermophilum); assay: BLI; details: 3'-biotin; BLI (Octet RED): 20 mM Tris-HCl pH 8.0, 150 mM NaCl, 10 mM MgCl2, 1 mM DTT, 1 mg/ml BSA; 0.5-5 uM ctXPD; temperature not stated
[9] = system: ctXPD Y156A (Chaetomium thermophilum); assay: BLI; details: 3'-biotin; BLI (Octet RED): 20 mM Tris-HCl pH 8.0, 150 mM NaCl, 10 mM MgCl2, 1 mM DTT, 1 mg/ml BSA; 0.5-5 uM ctXPD; temperature not stated

fluorescence-based helicase activity of ctXPD K719W with ctp44 (1-285) added (Rel. Fluorescence Change·s^−1) [1]: 4.8
ssDNA-dependent ATPase activity of ctXPD K719W with ctp44 (1-285) added (mol ATP·s^−1 ·mol^−1 XPD) [1]: 0.12
Substance: Chaetomium thermophilum XPD K719W (enzyme)

Substance: GACTACGTACTGTTACGGCTCCATCTCTACCGCAATCAGGCCAGATCTGC [50-nt ssDNA (BLI)]
Kd [2]: 1040 nM
Kd [3]: 192 nM
Kd [4]: 916 nM
Kd [5]: 93 nM
Kd [6]: 118 nM
Kd [7]: 668 nM
Kd [8]: 159 nM
Kd [9]: 561 nM

ssDNA-dependent ATPase activity of ctXPD with ctp44 (1-285) added (0.12 without ctp44) (mol ATP·s^−1 ·mol^−1 XPD) [1]: 0.7
Substance: Chaetomium thermophilum XPD wild type (enzyme)
